The data set is described as follows: protein stability index of a GFP-peptide fusion (GPS, HEK-293T) (PSI 1-6); higher = more stable. To be noted: c terminus: native.

The source of these data is the supplement of paper PMC10567573.
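Also: lentivirally expressed fusion library, cells FACS-sorted into six equal-sized GFP/DsRed ratio bins, PSI computed from sequencing read fractions per bin weighted by bin number.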

B1: TRPA1 addL (peptide)
chain: EQRNSRWNTVLRAVKAKTHHLEPL
Take B1: the protein stability index (parent: NP_015628.1) amounted to 4.2.

B2: POLD2 addL (peptide)
chain: CQPISFSGFGAEDDDLGGLGLGPL
Regarding B2, the protein stability index (parent: NP_006221.1) is 2.66.

B3: SNF8 addL (peptide)
chain: LPALFTDLYSQEITAEEAREALPL
For B3, the protein stability index (parent: NP_009172.2) was determined as 3.71.

B4: PSMB5 addL (peptide)
chain: DGWIRVSSDNVADLHEKYSGSTPL
B4: the protein stability index (parent: NP_002788.1) is 3.47.
